Publication PMC5575849 (Developmental cell, 2017)

Molecular target: the molecule itself
Assay: single-cell single-molecule pull-down

B1: mNG::AraD (mNG::3xFlag::AraD) (enzyme, E. coli, UniProt P08203 1-231, looked up)
chain: MLEDLKRQVLEANLALPKHNLVTLTWGNVSAVDRERGVFVIKPSGVDYSVMTADDMVVVSIETGEVVEGTKKPSSDTPTHRLLYQAFPSIGGIVHTHSRHATIWAQAGQSIPATGTTHADYFYGTIPCTRKMTDAEINGEYEWETGNVIVETFEKQGIDAAQMPGVLVHSHGPFAWGKNAEDAVHNAIVLEEVAYMGIFCRQLAPQLPDMQQTLLDKHYLRKHGAKAYYGQ
  stoichiometry N: 4
